The target in assay [1] is T1, HIV-1 YU-2 gp120 (HIV-1 (YU-2), UniProt P35961 32-498). Description: ITC.
The target of assay [2] is T1, HIV-1 YU-2 gp120. The assay can be described thus: ELISA. (In general: An ELISA detects its analyte on a solid surface through an enzyme-linked reagent.)
Assay [3] concerns the target T1, HIV-1 YU-2 gp120. Description: ELISA. The source holds these as a separate data set.

Read-outs that look alike come from different tables or passages of the source. Square brackets hold non-standard residues; d marks the D form. Ends that are not written are not given here. Ftp = ferrocenyl-triazole-Pro (made from azidoproline); Cit = NC(=O)NCCC[C@H](N)C(=O)O

B1: UM24 (peptide)
chain: [Cit]NNI[Ftp]WS
As to B1, the dH with HIV-1 YU-2 gp120 [1] was -16.7 kcal/mol.

B2: UM41 (peptide)
chain: NI[Ftp]WS-NH2
On to B2, for which, in the assay with HIV-1 YU-2 gp120 [1], the dH was -6.1 kcal/mol.

B3: UM17 (peptide)
chain: NNI[Ftp]W-NH2
Consider B3, for which the IC50 with HIV-1 YU-2 gp120 [2] was 600 ± 50 nM; with HIV-1 YU-2 gp120 [3], 4000 ± 170 nM. Besides, the dH in the assay with HIV-1 YU-2 gp120 [1] was -13.2 kcal/mol.

B4: UM15 (peptide)
chain: INNI[Ftp]W-NH2
Turning to B4, the dH with HIV-1 YU-2 gp120 [1] was -16.6 kcal/mol.

Broadly, the IC50 is the concentration that gives 50% inhibition.

For the origin of these results see PMC3035117 (ChemMedChem, 2010).
